B1: TR109 (anti-TNFR2 antagonist antibody, mouse monoclonal) (antibody, V domains shown)
VH: QVQLKESGPGLVAPSQSLSITCTVSGFSLTVYGVNWVRQPPGKGLEWLGMIWGDGSTAYNSALKSRLTITKDNSKTQVFLKMNSLQTDDTARYYCARDGRRYALDYWGQGTSVTVSS
VL: DIVLTQSPTSLAVSLGQRATISCRASESVDSYGDSFLHWYQQKPGQPPILLIYRASNLDSGIPARFSGSGSRTDFTLTINPVEADDVATYYCQQSNEDPYTFGGGTKLEINR
notes: also called Ep9: TR109; Ep7
B2: humanized TR92 antibody (TR92HUVH1 + TR92HUVL1) (antibody, V domains shown)
VH: QVQLVQSGAEVKKPGASVKVSCKASGYTFTESIIHWVRQAPGQGLEWMGWFYPGSDNINYNEKFKDRVTMTRDTSISTAYMELSRLRSDDTAVYYCARHEGPYVYFDYWGQGTTVTVSS
VL: DIVMTQSPDSLAVSLGERATINCKASQDVSTAVAWYQQKPGQPPKLLIYWTSTRHTGVPDRFSGSGSGTDFTLTISSLQAEDVAVYYCQHHYSTPYTFGQGTKLEIK
notes: also called one of the four humanized TR92 antibodies
B3: humanized TR92 antibody (TR92HUVH1 + TR92HUVL2) (antibody, V domains shown)
VH: QVQLVQSGAEVKKPGASVKVSCKASGYTFTESIIHWVRQAPGQGLEWMGWFYPGSDNINYNEKFKDRVTMTRDTSISTAYMELSRLRSDDTAVYYCARHEGPYVYFDYWGQGTTVTVSS
VL: DIQMTQSPSSLSASVGDRVTITCKASQDVSTAVAWYQQKPGKAPKLLIYWTSTRHTGVPSRFSGSGSGTDFTLTISSLQPEDFATYYCQHHYSTPYTFGQGTKLEIK
notes: as for B2
B4: humanized TR92 antibody (TR92HUVH2 + TR92HUVL2) (antibody, V domains shown)
VH: QVQLVQSGAEVKKPGASVKVSCKASGYTFTESIIHWVRQATGQGLEWMGWFYPGSDNINYNEKFKDRVTMTRNTSISTAYMELSSLRSEDTAVYYCARHEGPYVYFDYWGQGTTVTVSS
VL: DIQMTQSPSSLSASVGDRVTITCKASQDVSTAVAWYQQKPGKAPKLLIYWTSTRHTGVPSRFSGSGSGTDFTLTISSLQPEDFATYYCQHHYSTPYTFGQGTKLEIK
notes: as for B2
B5: humanized TR92 antibody (TR92HUVH2 + TR92HUVL1) (antibody, V domains shown)
VH: QVQLVQSGAEVKKPGASVKVSCKASGYTFTESIIHWVRQATGQGLEWMGWFYPGSDNINYNEKFKDRVTMTRNTSISTAYMELSSLRSEDTAVYYCARHEGPYVYFDYWGQGTTVTVSS
VL: DIVMTQSPDSLAVSLGERATINCKASQDVSTAVAWYQQKPGQPPKLLIYWTSTRHTGVPDRFSGSGSGTDFTLTISSLQAEDVAVYYCQHHYSTPYTFGQGTKLEIK
notes: as for B2
B6: humanized TR109 antibody (TR109HUVH1 + TR109HUVL1) (antibody, V domains shown)
VH: QVQLQESGPGLVKPSGTLSLTCAVSGGSISVYGVNWVRQPPGKGLEWIGMIWGDGSTAYNSALKSRVTISVDKSKNQFSLKLSSVTAADTAVYYCARDGRRYALDYWGQGTLVTVSS
VL: DIVMTQSPDSLAVSLGERATINCRASESVDSYGDSFLHWYQQKPGQPPKLLIYRASNLDSGVPDRFSGSGSGTDFTLTISSLQAEDVAVYYCQQSNEDPYTFGQGTKLEIK
notes: also called one of the four humanized TR109 antibodies
B7: humanized TR109 antibody (TR109HUVH1 + TR109HUVL2) (antibody, V domains shown)
VH: QVQLQESGPGLVKPSGTLSLTCAVSGGSISVYGVNWVRQPPGKGLEWIGMIWGDGSTAYNSALKSRVTISVDKSKNQFSLKLSSVTAADTAVYYCARDGRRYALDYWGQGTLVTVSS
VL: EIVLTQSPATLSLSPGERATLSCRASESVDSYGDSFLHWYQQKPGQAPRLLIYRASNLDSGIPARFSGSGSGTDFTLTISSLEPEDFAVYYCQQSNEDPYTFGQGTKLEIK
notes: as for B6
B8: humanized TR109 antibody (TR109HUVH2 + TR109HUVL2) (antibody, V domains shown)
VH: QVQLQESGPGLVKPSETLSLTCTVSGYSISVYGVNWIRQPPGKGLEWIGMIWGDGSTAYNSALKSRVTISVDTSKNQFSLKLSSVTAADTAVYYCARDGRRYALDYWGQGTLVTVSS
VL: EIVLTQSPATLSLSPGERATLSCRASESVDSYGDSFLHWYQQKPGQAPRLLIYRASNLDSGIPARFSGSGSGTDFTLTISSLEPEDFAVYYCQQSNEDPYTFGQGTKLEIK
notes: as for B6
B9: humanized TR109 antibody (TR109HUVH2 + TR109HUVL1) (antibody, V domains shown)
VH: QVQLQESGPGLVKPSETLSLTCTVSGYSISVYGVNWIRQPPGKGLEWIGMIWGDGSTAYNSALKSRVTISVDTSKNQFSLKLSSVTAADTAVYYCARDGRRYALDYWGQGTLVTVSS
VL: DIVMTQSPDSLAVSLGERATINCRASESVDSYGDSFLHWYQQKPGQPPKLLIYRASNLDSGVPDRFSGSGSGTDFTLTISSLQAEDVAVYYCQQSNEDPYTFGQGTKLEIK
notes: as for B6

Biological target: T1, TNFR1 on transiently transfected cells (UniProt P19438 30-455, limits assumed)
T1 construct: whole, on cells
T1 sequence (looked up): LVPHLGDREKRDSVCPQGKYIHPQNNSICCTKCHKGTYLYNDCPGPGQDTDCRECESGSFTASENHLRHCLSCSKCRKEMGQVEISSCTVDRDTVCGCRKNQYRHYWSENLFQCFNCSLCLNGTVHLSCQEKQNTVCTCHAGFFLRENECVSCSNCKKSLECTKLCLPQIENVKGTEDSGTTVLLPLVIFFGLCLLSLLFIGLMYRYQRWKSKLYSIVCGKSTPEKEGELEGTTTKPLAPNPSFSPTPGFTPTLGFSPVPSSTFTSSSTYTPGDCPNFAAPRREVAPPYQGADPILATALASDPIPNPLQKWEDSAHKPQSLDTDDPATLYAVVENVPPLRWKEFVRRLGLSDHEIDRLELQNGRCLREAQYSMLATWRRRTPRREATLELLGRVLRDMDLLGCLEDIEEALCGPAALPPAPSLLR
Assay: flow cytometry on transiently transfected cells

Binder | binding result
B1 | no binding

Biological target: T2, human TNFR2 expressed on the cell membrane (membrane-type TNFR2) (human, UniProt P20333 23-461)
T2 construct: also called TNFRSF1B; cell membrane type TNFR2
T2 sequence: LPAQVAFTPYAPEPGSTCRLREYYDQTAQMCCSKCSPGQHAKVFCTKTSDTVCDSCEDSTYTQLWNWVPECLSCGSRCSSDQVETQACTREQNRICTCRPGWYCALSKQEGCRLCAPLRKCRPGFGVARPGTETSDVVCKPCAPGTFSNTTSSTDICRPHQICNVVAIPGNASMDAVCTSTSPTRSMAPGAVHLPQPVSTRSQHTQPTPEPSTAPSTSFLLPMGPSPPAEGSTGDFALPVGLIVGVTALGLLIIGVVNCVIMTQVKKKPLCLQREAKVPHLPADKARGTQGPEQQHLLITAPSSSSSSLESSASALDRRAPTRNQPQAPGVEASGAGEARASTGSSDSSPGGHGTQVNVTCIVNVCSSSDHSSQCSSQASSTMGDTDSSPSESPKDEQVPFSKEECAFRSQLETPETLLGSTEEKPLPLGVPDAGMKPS
Assay: flow cytometry on cells with transient expression of TNFR2 against untreated cells

Binder | binding result
B2 | binds
B3 | binds
B4 | binds
B5 | binds
B6 | binds
B7 | binds
B8 | binds
B9 | binds
